Values quoted from earlier work in paper PMC8232796.
pKd: −log10 of the molar value. Where two headings read alike, the source gives them in different places.

What was measured:
[1] = target: Ubiquitin (Homo sapiens) (UniProt P0CG48)
[2] = target: Ubiquitin (Homo sapiens) (UniProt P0CG48); remark: listed apart in the source
[3] = target: Ubiquitin (Homo sapiens) (UniProt P0CG48); remark: listed apart in the source
[4] = target: HIV-1 Gag p6 peptide p6 (Human immunodeficiency virus 1) (UniProt O93182)

Tsg101 UEV UEV, sequence (Q99816 1-148): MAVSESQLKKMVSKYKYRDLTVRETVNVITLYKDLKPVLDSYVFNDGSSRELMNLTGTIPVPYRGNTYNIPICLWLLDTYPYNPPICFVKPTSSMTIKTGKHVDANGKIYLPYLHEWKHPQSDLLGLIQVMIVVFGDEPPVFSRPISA
UbcH5, sequence (P51668 whole entry): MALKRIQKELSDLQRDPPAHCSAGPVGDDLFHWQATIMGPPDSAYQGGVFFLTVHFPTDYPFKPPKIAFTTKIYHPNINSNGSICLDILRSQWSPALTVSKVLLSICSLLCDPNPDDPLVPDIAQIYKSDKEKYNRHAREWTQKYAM
hMms2 UEV, sequence (Q15819 2-145): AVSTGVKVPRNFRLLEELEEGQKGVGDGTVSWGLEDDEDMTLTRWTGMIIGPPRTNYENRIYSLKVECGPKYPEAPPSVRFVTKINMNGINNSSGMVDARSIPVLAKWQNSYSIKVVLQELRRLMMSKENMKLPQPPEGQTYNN

hMms2 UEV (from UniProt Q15819)
pKd [1]: 4.00

UbcH5 (from UniProt P51668)
pKd [2]: 3.52

Tsg101 UEV UEV (from UniProt Q99816)
pKd [3]: 3.30 | pKd [4]: 4.57
